Test results as given in the supplement of paper PMC11246515.
± gives the standard deviation of the averaged measurements.

Assay: total protein half-life in vivo (active degradation + dilution); higher = more stable protein
[1] = E. coli NCM3722 delta-clpP delta-lon delta-hslV, growth: N-lim chemostat, doubling time 6 h
[2] = E. coli NCM3722 delta-clpP, growth: N-lim chemostat, doubling time 6 h
[3] = E. coli NCM3722 delta-hslV, growth: N-lim chemostat, doubling time 6 h
[4] = E. coli NCM3722 delta-smpB, growth: N-lim chemostat, doubling time 6 h
[5] = wild type E. coli NCM3722, growth: C-lim chemostat, doubling time 3 h
[6] = wild type E. coli NCM3722, growth: C-lim chemostat, doubling time 6 h
[7] = wild type E. coli NCM3722, growth: C-lim chemostat, doubling time 12 h
[8] = wild type E. coli NCM3722, growth: N-lim chemostat, doubling time 12 h
[9] = wild type E. coli NCM3722, growth: P-lim chemostat, doubling time 6 h
[10] = wild type E. coli NCM3722, growth: P-lim chemostat, doubling time 12 h
[11] = wild type E. coli NCM3722, growth: N-lim chemostat, doubling time 6 h
[12] = E. coli NCM3722 delta-lon, growth: N-lim chemostat, doubling time 6 h

With “MTTDQHQEILRTEGLSKFFPGVKALDNVDFSLRRGEIMALLGENGAGKSTLIKALTGVYHADRGTIWLEGQAISPKNTAHAQQLGIGTVYQEVNLLPNMSVADNLFIGREPKRFGLLRRKEMEKRATELMASYGFSLDVREPLNRFSVAMQQIVAICRAIDLSAKVLILDEPTASLDTQEVELLFDLMRQLRDRGVSLIFVTHFLDQVYQVSDRITVLRNGSFVGCRETCELPQIELVKMMLGRELDTHALQRAGRTLLSDKPVAAFKNYGKKGTIAPFDLEVRPGEIVGLAGLLGSGRTETAEVIFGIKPADSGTALIKGKPQNLRSPHQASVLGIGFCPEDRKTDGIIAAASVRENIILALQAQRGWLRPISRKEQQEIAERFIRQLGIRTPSTEQPIEFLSGGNQQKVLLSRWLLTRPQFLILDEPTRGIDVGAHAEIIRLIETLCADGLALLVISSELEELVGYADRVIIMRDRKQVAEIPLAELSVPAIMNAIAA [Q6BEX0]” the “total protein half-life in vivo” value [1] was 4.28 h, the “total protein half-life in vivo” value [2] was 6.33 ± 1.2 h and the “total protein half-life in vivo” value [3] was 4.45 h. The “total protein half-life in vivo” value [4] was 5.51 h, the “total protein half-life in vivo” value [5] was 3 ± 0.35 h and the “total protein half-life in vivo” value [6] was 6.5 ± 0.63 h. For the same sequence, the “total protein half-life in vivo” value [7] was 10.7 ± 0.33 h, the “total protein half-life in vivo” value [8] was 9.4 h and the “total protein half-life in vivo” value [9] was 5.93 ± 0.44 h. For the same sequence, the “total protein half-life in vivo” value [10] was 11 ± 1.1 h.
For “MSNKNVNVRKSQEITFCLLAGILMFMAMMVAGRAEAGVALGATRVIYPAGQKQEQLAVTNNDENSTYLIQSWVENADGVKDGRFIVTPPLFAMKGKKENTLRILDATNNQLPQDRESLFWMNVKAIPSMDKSKLTENTLQLAIISRIKLYYRPAKLALPPDQAAEKLRFRRSANSLTLINPTPYYLTVTELNAGTRVLENALVPPMGESTVKLPSDAGSNITYRTINDYGALTPKMTGVME”, the “total protein half-life in vivo” value [1] was 4.77 h, the “total protein half-life in vivo” value [4] was 5.38 ± 0.18 h and the “total protein half-life in vivo” value [6] was 5.55 ± 0.66 h. The “total protein half-life in vivo” value [7] was over 16 h, the “total protein half-life in vivo” value [11] was 7.84 h and the “total protein half-life in vivo” value [8] was 14.8 h. The “total protein half-life in vivo” value [9] was 5.67 h and the “total protein half-life in vivo” value [10] was 13.2 ± 3 h.
For “MKCSWREGNKIQLLENGEQYYPAVFKAIGEAQERIILETFIWFEDDVGKQLHAALLAAAQRGVKAEVLLDGYGSPDLSDEFVNELTAAGVVFRYYDPRPRLFGMRTNVFRRMHRKIVVIDARIAFIGGLNYSAEHMSSYGPEAKQDYAVRLEGPIVEDILQFELENLPGQSAARRWWRRHHKAEENRQPGEAQVLLVWRDNEEHRDDIERHYLKMLTQARREVIIANAYFFPGYRFLHALRKAARRGVRIKLIIQGEPDMPIVRVGARLLYNYLVKGGVQVFEYRRRPLHGKVALMDDHWATVGSSNLDPLSLSLNLEANVIIHDRHFNQTLRDNLNGIIAADCQQVDETMLPKRTWWNLTKSVLAFHFLRHFPALVGWLPAHTPRLAQVDPPAQPTMETQDRVETENTGVKP [P0AA84]”, the “total protein half-life in vivo” value [1] was 5.09 ± 0.17 h, the “total protein half-life in vivo” value [2] was 4.47 ± 0.2 h and the “total protein half-life in vivo” value [3] was 3.731 ± 0.026 h. For the same sequence, the “total protein half-life in vivo” value [12] was 4.02 ± 0.65 h, the “total protein half-life in vivo” value [4] was 3.99 ± 0.16 h and the “total protein half-life in vivo” value [5] was 2.78 ± 0.092 h. For the same sequence, the “total protein half-life in vivo” value [6] was 5.37 ± 2.1 h, the “total protein half-life in vivo” value [7] was 5.9 ± 1.9 h and the “total protein half-life in vivo” value [11] was 3.75 ± 0.25 h. For the same sequence, the “total protein half-life in vivo” value [8] was 6.19 ± 0.53 h, the “total protein half-life in vivo” value [9] was 5.17 ± 1.5 h and the “total protein half-life in vivo” value [10] was 9.94 ± 4.7 h.
With “MASTARSLRYALAILTTSLVTPSVWAHAHLTHQYPAANAQVTAAPQAITLNFSEGVETGFSGAKITGPKNENIKTLPAKRNEQDQKQLIVPLADSLKPGTYTVDWHVVSVDGHKTKGHYTFSVK [P0AA57]” the “total protein half-life in vivo” value [1] was 5.53 h, the “total protein half-life in vivo” value [3] was over 8 h and the “total protein half-life in vivo” value [12] was 5.82 h. For the same sequence, the “total protein half-life in vivo” value [4] was 4.84 h, the “total protein half-life in vivo” value [5] was 3.06 h and the “total protein half-life in vivo” value [6] was 5.46 ± 0.25 h. For the same sequence, the “total protein half-life in vivo” value [7] was 9.96 ± 0.3 h, the “total protein half-life in vivo” value [11] was 5.82 ± 0.43 h and the “total protein half-life in vivo” value [8] was 9.82 ± 0.3 h. For the same sequence, the “total protein half-life in vivo” value [9] was 4.82 h and the “total protein half-life in vivo” value [10] was 9.37 ± 0.95 h.
With “MNIEELKKQAETEIADFIAQKIAELNKNTGKEVSEIRFTAREKMTGLESYDVKIKIM [P0AC92]” the “total protein half-life in vivo” value [1] was over 8 h, the “total protein half-life in vivo” value [2] was 5.88 ± 0.43 h and the “total protein half-life in vivo” value [3] was 6.62 ± 0.26 h. The “total protein half-life in vivo” value [12] was 6.72 ± 0.85 h, the “total protein half-life in vivo” value [4] was 5.86 ± 0.59 h and the “total protein half-life in vivo” value [5] was 2.98 ± 0.29 h. The “total protein half-life in vivo” value [6] was 4.55 ± 2.8 h, the “total protein half-life in vivo” value [7] was 10 ± 1.4 h and the “total protein half-life in vivo” value [11] was 5.99 ± 1.4 h. For the same sequence, the “total protein half-life in vivo” value [9] was 6.14 h.
In the case of “MDRVLHFVLALAVVAILALLVSSDRKKIRIRYVIQLLVIEVLLAWFFLNSDVGLGFVKGFSEMFEKLLGFANEGTNFVFGSMNDQGLAFFFLKVLCPIVFISALIGILQHIRVLPVIIRAIGFLLSKVNGMGKLESFNAVSSLILGQSENFIAYKDILGKISRNRMYTMAATAMSTVSMSIVGAYMTMLEPKYVVAALVLNMFSTFIVLSLINPYRVDASEENIQMSNLHEGQSFFEMLGEYILAGFKVAIIVAAMLIGFIALIAALNALFATVTGWFGYSISFQGILGYIFYPIAWVMGVPSSEALQVGSIMATKLVSNEFVAMMDLQKIASTLSPRAEGIISVFLVSFANFSSIGIIAGAVKGLNEEQGNVVSRFGLKLVYGSTLVSVLSASIAALVL [P0AFF2]”, the “total protein half-life in vivo” value [1] is reported as 7.07 ± 0.54 h, the “total protein half-life in vivo” value [2] is reported as 6.45 ± 0.078 h and the “total protein half-life in vivo” value [3] is reported as 6.09 ± 0.15 h. The “total protein half-life in vivo” value [12] was 5.82 ± 0.35 h, the “total protein half-life in vivo” value [4] was 6.04 ± 0.57 h and the “total protein half-life in vivo” value [5] was 3.61 ± 0.038 h. For the same sequence, the “total protein half-life in vivo” value [6] was 6.32 ± 0.029 h, the “total protein half-life in vivo” value [11] was 6.36 ± 0.65 h and the “total protein half-life in vivo” value [8] was 9.54 ± 3.4 h. The “total protein half-life in vivo” value [9] was 5.57 h and the “total protein half-life in vivo” value [10] was 13 ± 0.8 h.
For “MHVFDNNGIELKAECSIGEEDGVYGLILESWGPGDRNKDYNIALDYIIERLVDSGVSQVVVYLASSSVRKHMHSLDERKIHPGEYFTLIGNSPRDIRLKMCGYQAYFSRTGRKEIPSGNRTKRILINVPGIYSDSFWASIIRGELSELSQPTDDESLLNMRVSKLIKKTLSQPEGSRKPVEVERLQKVYVRDPMVKAWILQQSKGICENCGKNAPFYLNDGNPYLEVHHVIPLSSGGADTTDNCVALCPNCHRELHYSKNAKELIEMLYVNINRLQK”, the “total protein half-life in vivo” value [1] was 5.51 h, the “total protein half-life in vivo” value [3] was 4.2 h and the “total protein half-life in vivo” value [12] was 5.87 h. For the same sequence, the “total protein half-life in vivo” value [4] was 4.87 h, the “total protein half-life in vivo” value [11] was 4.8 ± 0.71 h and the “total protein half-life in vivo” value [8] was 8.5 ± 1.1 h. The “total protein half-life in vivo” value [10] was 10.2 h.
